T1: mTERB1-MYB (Mus musculus, UniProt Q8C0V1 707-760)
T1 sequence: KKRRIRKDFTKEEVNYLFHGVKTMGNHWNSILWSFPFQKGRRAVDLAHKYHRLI

T2: hTERB1-MYB (Homo sapiens, UniProt Q8NA31 666-719)
T2 sequence: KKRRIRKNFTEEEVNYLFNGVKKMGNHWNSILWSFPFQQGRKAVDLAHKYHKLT

B1: dsDNA_scrambled_8-mer (dsDNA)
DNA 1: GACAGCGATGAGAACTAATTCGTGTGCTTGCTGACTGATATCGTGACT
DNA 2: AGTCACGATATCAGTCAGCAAGCACACGAATTAGTTCTCATCGCTGTC
B2: dsDNA_telo_8-mer (TTAGGG)8 (dsDNA)
DNA 1: TTAGGGTTAGGGTTAGGGTTAGGGTTAGGGTTAGGGTTAGGGTTAGGG
DNA 2: CCCTAACCCTAACCCTAACCCTAACCCTAACCCTAACCCTAACCCTAA

Assays:
[1] = target: T1, mTERB1-MYB; assay: EMSA; 2-8 uM protein, 150 nM probe; 50 mM Tris-HCl pH 8.0, 6.5% glycerol, 20 mM NaCl, 5 mM DTT, 150 nM probe, 10 ul, 30 min on ice; 4-20% TBE native gel; conditions: protein: recombinant; tags: 6xHis (not cleaved); label: 32P (T4 PNK)
[2] = target: T2, hTERB1-MYB; assay: as above; conditions: protein: recombinant; tags: none after Ulp1 cleavage of His-Smt3; label: 32P (T4 PNK)
[3] = target: hTRF2-MYB (Homo sapiens, UniProt Q15554 488-542); assay: EMSA; 150 nM probe; 50 mM Tris-HCl pH 8.0, 6.5% glycerol, 20 mM NaCl, 5 mM DTT, 150 nM probe, 10 ul, 30 min on ice; 4-20% TBE native gel; conditions: protein: recombinant; tags: none after Ulp1 cleavage of 10xHis-Smt3; label: 32P (T4 PNK)
[4] = target: T1, mTERB1-MYB; assay: as above; conditions: protein: recombinant; tags: 6xHis (not cleaved); label: 32P (T4 PNK)
[5] = target: T2, hTERB1-MYB; assay: as above; conditions: protein: recombinant; tags: none after Ulp1 cleavage of His-Smt3; label: 32P (T4 PNK)

hTRF2-MYB, sequence (Q15554 488-542): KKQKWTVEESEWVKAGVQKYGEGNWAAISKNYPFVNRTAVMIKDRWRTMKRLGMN

Binder	binding result [1]	binding result [2]	binding result [3]	binding result [4]	binding result [5]
B1	no binding	no binding			
B2			binds	no binding	no binding

Reference: PMC8867601, “The TERB1 MYB domain suppresses telomere erosion in meiotic prophase I”
